± gives the uncertainty stated by the source.
Assay: self-splicing fitness, log relative to wild type (ln ratio); higher = more splicing; Tetrahymena group I intron in knt gene, E. coli kanamycin selection, DiMSum; sequences stand for … in CUCUCU…GGAGGGAAAAGUUAUCAGGCAUGCACCUGGUAGCUAGUCUUUAAACCAAUAGAUUGCAUCGGUUUAAAAGGCAAGACCGUCAAAUUGCGGGAAAGGGGUCAACAGCCGUUCAGUACCAAGUCUCAGGGGAAACUUUGAGAUGGCCUUGCAAAGGGUAUGGUAAUAAGCUGACGGACAUGGUCCUAACCACGCAGCCAAGUCCUAAGUCAACAGAUCUUCUGUUGAUAUGGAUGCAGUUCACAGACUAAAUGUCGGUCGGGGAAGAUGUAUUCUUCUCAUAAGAUAUAGUCGGACCUCUCCUUAAUGGGAGCUAGCGGAUGAAGUGAUGCAACACUGGAGCCGCUGGGAACUAAUUUGUAUGCGAAAGUAUAUUGAUUAGUUUUGGAGUACUCGUGGUCG
Summary of the method: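 DiMSum derived fitness as the error-weighted combination of fold changes across replicates, kanamycin versus no kanamycin, normalised to wild type. E. coli BL21(DE3) held the library, which randomised all eight P1ex-region intron nucleotides within the knt kanamycin-resistance gene on pET-22b(+). Six replicate transformations grew overnight at 37°C or 30°C on LB agar with or without 25 μg/mL kanamycin, also containing 100 μg/mL carbenicillin, 50 μM IPTG and 0.2% rhamnose, and pooled colonies were amplicon-sequenced on an Illumina HiSeq 2500.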

Sequence	self-splicing fitness (ln) (30 °C)	self-splicing fitness (ln) (37 °C)
CGCAAGCAAUAUUACGGGCG	-4.43 ± 0.19	-2.76 ± 0.2
CGCAAGCAAUAUUACGGGGU	-4.04 ± 0.18	-1.33 ± 0.12
CGCAAGCAAUAUUACGUAUU	-3.08 ± 0.21	-3.5 ± 0.35
CGCAAGCAAUAUUACGUCAU	-4.26 ± 0.24	-2.4 ± 0.17
CGCAAGCAAUAUUACGUCCG	-0.62 ± 0.12	0.53 ± 0.2
CGCAAGCAAUAUUACGUCUC	-3.36 ± 0.18	-1.49 ± 0.15
CGCAAGCAAUAUUACGUCUU	-4.05 ± 0.26	-3.12 ± 0.22
CGCAAGCAAUAUUACGUGGA	-3.37 ± 0.16	-1.6 ± 0.095
CGCAAGCAAUAUUACGUGUG	-4.31 ± 0.14	-2.56 ± 0.11
CGCAAGCAAUAUUACGUUGA	-2.6 ± 0.13	-2.02 ± 0.15
CGCCAGCAAUAUUACGAACG	-0.982 ± 0.097	0.0565 ± 0.12
CGCCAGCAAUAUUACGACAC	-2.92 ± 0.25	-1.65 ± 0.26
CGCCAGCAAUAUUACGACCG	-0.693 ± 0.083	-0.103 ± 0.12
CGCCAGCAAUAUUACGAGAA	-2.14 ± 0.42	-2.75 ± 0.38
CGCCAGCAAUAUUACGAGUG	-2.41 ± 0.07	-1.59 ± 0.11
CGCCAGCAAUAUUACGAUAC	-3.42 ± 0.22	-3.13 ± 0.24
CGCCAGCAAUAUUACGAUAU	-3.92 ± 0.22	-2.14 ± 0.2
CGCCAGCAAUAUUACGCCGC	-2.72 ± 0.21	-1.39 ± 0.39
CGCCAGCAAUAUUACGCUAG	-2.94 ± 0.16	-2.4 ± 0.23
CGCCAGCAAUAUUACGGACG	-4.63 ± 0.31	-2.95 ± 0.28
CGCCAGCAAUAUUACGGAUC	-1.24 ± 0.22	-1.38 ± 0.47
CGCCAGCAAUAUUACGGCUA	-0.576 ± 0.061	-0.172 ± 0.068
CGCCAGCAAUAUUACGGGCC	-3.13 ± 0.21	-1.72 ± 0.2
CGCCAGCAAUAUUACGGGGC	-4 ± 0.19	-2.55 ± 0.16
CGCCAGCAAUAUUACGGUCC	-0.387 ± 0.13	-0.161 ± 0.16

Sequence	self-splicing fitness (ln) (30 °C)	self-splicing fitness (ln) (37 °C)
CGCCAGCAAUAUUACGGUGU	-2.27 ± 0.12	-2.84 ± 0.26
CGCCAGCAAUAUUACGUACG	-1.6 ± 0.098	-0.916 ± 0.12
CGCCAGCAAUAUUACGUAGG	-2.47 ± 0.085	-1.32 ± 0.1
CGCCAGCAAUAUUACGUCAC	-3.7 ± 0.24	-2 ± 0.24
CGCCAGCAAUAUUACGUCCA	–	-1.45 ± 0.39
CGCCAGCAAUAUUACGUGAU	-3.42 ± 0.088	-2.27 ± 0.11
CGCCAGCAAUAUUACGUUUG	-1.17 ± 0.049	-0.629 ± 0.072
CGCGAGCAAUAUUACGAACU	-1.75 ± 0.18	-0.234 ± 0.23
CGCGAGCAAUAUUACGACAA	-2.72 ± 0.34	-2.28 ± 0.33
CGCGAGCAAUAUUACGACAU	-3.853 ± 0.03	-2.77 ± 0.043
CGCGAGCAAUAUUACGACGG	-0.512 ± 0.1	-0.452 ± 0.11
CGCGAGCAAUAUUACGACUA	-2.42 ± 0.23	-2.64 ± 0.25
CGCGAGCAAUAUUACGAGUA	-3.55 ± 0.32	-2.61 ± 0.27
CGCGAGCAAUAUUACGAUUG	-1.3 ± 0.12	-0.15 ± 0.12
CGCGAGCAAUAUUACGCAAU	-4.68 ± 0.36	-2.83 ± 0.29
CGCGAGCAAUAUUACGCACU	-2.58 ± 0.13	-1.51 ± 0.13
CGCGAGCAAUAUUACGCUUU	-3.44 ± 0.33	-0.916 ± 0.24
CGCGAGCAAUAUUACGGACC	–	-1.47 ± 0.31
CGCGAGCAAUAUUACGGACU	-1.82 ± 0.3	-0.107 ± 0.26
CGCGAGCAAUAUUACGGGAC	-3.07 ± 0.25	-2.43 ± 0.45
CGCGAGCAAUAUUACGGUUU	-4.02 ± 0.22	-2.55 ± 0.18
CGCGAGCAAUAUUACGUAUA	-3.38 ± 0.27	-1.24 ± 0.24
CGCGAGCAAUAUUACGUAUU	-3.09 ± 0.43	-2.6 ± 0.39
CGCGAGCAAUAUUACGUCAG	-1.19 ± 0.092	-1.27 ± 0.11
CGCGAGCAAUAUUACGUGUG	-4.51 ± 0.24	-2.68 ± 0.13

Sequence	self-splicing fitness (ln) (30 °C)	self-splicing fitness (ln) (37 °C)
CGCUAGCAAUAUUACGAAGU	-3.12 ± 0.22	-2.28 ± 0.31
CGCUAGCAAUAUUACGAGAU	-3.86 ± 0.19	-3.36 ± 0.23
CGCUAGCAAUAUUACGAGCC	-1.23 ± 0.2	-0.554 ± 0.17
CGCUAGCAAUAUUACGAUCA	-0.592 ± 0.16	-0.635 ± 0.13
CGCUAGCAAUAUUACGAUUU	-3.41 ± 0.2	-1.42 ± 0.12
CGCUAGCAAUAUUACGCCGG	-3.06 ± 0.29	-2.24 ± 0.45
CGCUAGCAAUAUUACGCCUU	-2.49 ± 0.27	-0.069 ± 0.19
CGCUAGCAAUAUUACGCGAA	–	-2.95 ± 0.43
CGCUAGCAAUAUUACGCGAU	-3.59 ± 0.19	-2.25 ± 0.2
CGCUAGCAAUAUUACGCUCG	-1.72 ± 0.22	-1.02 ± 0.4
CGCUAGCAAUAUUACGCUGA	-2.69 ± 0.2	-2.26 ± 0.22
CGCUAGCAAUAUUACGGCCC	-1.74 ± 0.19	0.036 ± 0.24
CGCUAGCAAUAUUACGGCUC	-1.15 ± 0.16	-0.2 ± 0.19
CGCUAGCAAUAUUACGGGCU	-1.85 ± 0.17	-1.33 ± 0.2
CGCUAGCAAUAUUACGGUGC	-4.65 ± 0.34	-3.09 ± 0.25
CGCUAGCAAUAUUACGGUUC	-2.13 ± 0.21	-0.893 ± 0.26
CGCUAGCAAUAUUACGUCAC	-4.44 ± 0.42	-3.4 ± 0.37
CGCUAGCAAUAUUACGUCGA	-2.02 ± 0.35	-1.78 ± 0.32
CGCUAGCAAUAUUACGUCGU	-3.7 ± 0.37	-2.87 ± 0.23
CGGAAGCAAUAUUACGAACG	-3 ± 0.21	-0.802 ± 0.24
CGGAAGCAAUAUUACGAAGU	–	-2.81 ± 0.44
CGGAAGCAAUAUUACGACAU	-3.637 ± 0.026	-2.32 ± 0.038
CGGAAGCAAUAUUACGACCG	-3.04 ± 0.35	-2.26 ± 0.45
CGGAAGCAAUAUUACGACGU	-2.55 ± 0.11	-0.27 ± 0.12
CGGAAGCAAUAUUACGAUCA	-0.698 ± 0.11	-0.039 ± 0.1

Sequence	self-splicing fitness (ln) (30 °C)	self-splicing fitness (ln) (37 °C)
CGGAAGCAAUAUUACGAUUA	-1.17 ± 0.18	-1.56 ± 0.16
CGGAAGCAAUAUUACGCAAG	-0.584 ± 0.18	-1.95 ± 0.43
CGGAAGCAAUAUUACGCACC	-2.4 ± 0.32	-1.19 ± 0.27
CGGAAGCAAUAUUACGCCUU	-3.2 ± 0.17	-3.48 ± 0.3
CGGAAGCAAUAUUACGCGAA	-2.86 ± 0.27	-1.46 ± 0.32
CGGAAGCAAUAUUACGCGUA	-2.96 ± 0.29	-2.47 ± 0.25
CGGAAGCAAUAUUACGCUCA	-1.59 ± 0.17	0.105 ± 0.18
CGGAAGCAAUAUUACGCUGC	-2.35 ± 0.41	-1.78 ± 0.2
CGGAAGCAAUAUUACGGAAC	-2.23 ± 0.34	–
CGGAAGCAAUAUUACGGGCG	-0.796 ± 0.091	-0.481 ± 0.12
CGGAAGCAAUAUUACGGUAG	-0.312 ± 0.072	-0.214 ± 0.096
CGGAAGCAAUAUUACGUAAC	–	-2.71 ± 0.27
CGGAAGCAAUAUUACGUGGA	-2.79 ± 0.14	-2.93 ± 0.21
CGGCAGCAAUAUUACGAGAU	-1.99 ± 0.19	-2.81 ± 0.27
CGGCAGCAAUAUUACGAGUG	-1.03 ± 0.086	0.319 ± 0.1
CGGCAGCAAUAUUACGCCGA	-2.87 ± 0.29	-2.76 ± 0.34
CGGCAGCAAUAUUACGCGGU	-4.26 ± 0.25	-3.33 ± 0.19
CGGCAGCAAUAUUACGCUGC	-3.47 ± 0.32	-1.5 ± 0.19
CGGCAGCAAUAUUACGGAGA	-1.63 ± 0.3	-1.62 ± 0.29
CGGCAGCAAUAUUACGGCCU	-1.23 ± 0.092	-0.41 ± 0.088
CGGCAGCAAUAUUACGGGAA	-2.49 ± 0.15	-1.97 ± 0.16
CGGCAGCAAUAUUACGGGCG	-1.85 ± 0.13	-0.898 ± 0.14

— the supplement of paper PMC7877785
